Test results: patent US20210246166A1 (Bayer, published 2021)
Bridge positions count the residues as written; N and C are the ends. Square brackets hold non-standard residues; d marks the D form. Ends that are not written are not given here. * marks the point of attachment. X5 = Tetrahydropyranyl‑4‑acetic acid, O=C(CC1CCOCC1)*; Oic = O=C(O)[C@@H]1C[C@@H]2CCCC[C@@H]2N1; Butanoyl(3,3-Me2) = CC(C)(C)CC(=O)*; Hyp = O=C(O)[C@@H]1C[C@@H](O)CN1; NMeI = CC[C@H](C)[C@H](NC)C(=O)O; aIle = CC[C@@H](C)[C@H](N)C(=O)O; tBuAla = CC(C)(C)C[C@H](N)C(=O)O; Pen = CC(C)(S)[C@H](N)C(=O)O; NMeC = CN[C@@H](CS)C(=O)O; Sar = CNCC(=O)O

B1: Example 341: IC+SRSLP-(Oic)-I-(Pen)+I-NH2 (peptide)
peptide: ICSRSLP[Oic]I[Pen]I-NH2
modifications: disulfide 2-10; N-terminus assumed
SMILES: CC[C@H](C)[C@H](N)C(=O)N[C@H]1CSSC(C)(C)[C@@H](C(=O)N[C@H](C(N)=O)[C@@H](C)CC)NC(=O)[C@H]([C@@H](C)CC)NC(=O)[C@@H]2C[C@@H]3CCCC[C@@H]3N2C(=O)[C@@H]2CCCN2C(=O)[C@H](CC(C)C)NC(=O)[C@H](CO)NC(=O)[C@H](CCCNC(=N)N)NC(=O)[C@H](CO)NC1=O
B2: Example 346: AIC+SRSLPP-(allo-I)-C+IPD-NH2 (peptide)
peptide: AICSRSLPP[aIle]CIPD-NH2
modifications: disulfide 3-11; N-terminus assumed
SMILES: CC[C@@H](C)[C@@H]1NC(=O)[C@@H]2CCCN2C(=O)[C@@H]2CCCN2C(=O)[C@H](CC(C)C)NC(=O)[C@H](CO)NC(=O)[C@H](CCCNC(=N)N)NC(=O)[C@H](CO)NC(=O)[C@@H](NC(=O)[C@@H](NC(=O)[C@H](C)N)[C@@H](C)CC)CSSC[C@@H](C(=O)N[C@H](C(=O)N2CCC[C@H]2C(=O)N[C@@H](CC(=O)O)C(N)=O)[C@@H](C)CC)NC1=O
B3: Example 342: (Tetrahydropyranyl-4-acetic acid)-IC+SRS-((tBu)A)-PPIC+IPD-NH2 (peptide)
peptide: X5-ICSRS[tBuAla]PPICIPD-NH2
modifications: disulfide 2-10
SMILES: CC[C@H](C)[C@H](NC(=O)CC1CCOCC1)C(=O)N[C@H]1CSSC[C@@H](C(=O)N[C@H](C(=O)N2CCC[C@H]2C(=O)N[C@@H](CC(=O)O)C(N)=O)[C@@H](C)CC)NC(=O)[C@H]([C@@H](C)CC)NC(=O)[C@@H]2CCCN2C(=O)[C@@H]2CCCN2C(=O)[C@H](CC(C)(C)C)NC(=O)[C@H](CO)NC(=O)[C@H](CCCNC(=N)N)NC(=O)[C@H](CO)NC1=O
B4: Example 345: IC+SRS-((tBu)A)-PPI-(Pen)+I-NH2 (peptide)
peptide: ICSRS[tBuAla]PPI[Pen]I-NH2
modifications: disulfide 2-10; N-terminus assumed
SMILES: CC[C@H](C)[C@H](N)C(=O)N[C@H]1CSSC(C)(C)[C@@H](C(=O)N[C@H](C(N)=O)[C@@H](C)CC)NC(=O)[C@H]([C@@H](C)CC)NC(=O)[C@@H]2CCCN2C(=O)[C@@H]2CCCN2C(=O)[C@H](CC(C)(C)C)NC(=O)[C@H](CO)NC(=O)[C@H](CCCNC(=N)N)NC(=O)[C@H](CO)NC1=O
B5: Example 335: ((tBu)A)-IC+SRSLP-(Oic)-I-(Pen)+IP-OH (peptide)
peptide: [tBuAla]ICSRSLP[Oic]I[Pen]IP-OH
modifications: disulfide 3-11; N-terminus assumed
SMILES: CC[C@H](C)[C@H](NC(=O)[C@@H](N)CC(C)(C)C)C(=O)N[C@H]1CSSC(C)(C)[C@@H](C(=O)N[C@H](C(=O)N2CCC[C@H]2C(=O)O)[C@@H](C)CC)NC(=O)[C@H]([C@@H](C)CC)NC(=O)[C@@H]2C[C@@H]3CCCC[C@@H]3N2C(=O)[C@@H]2CCCN2C(=O)[C@H](CC(C)C)NC(=O)[C@H](CO)NC(=O)[C@H](CCCNC(=N)N)NC(=O)[C@H](CO)NC1=O
B6: Example 336: IC+SRSLP-(Oic)-I-(Pen)+IP-NH2 (peptide)
peptide: ICSRSLP[Oic]I[Pen]IP-NH2
modifications: disulfide 2-10; N-terminus assumed
SMILES: CC[C@H](C)[C@H](N)C(=O)N[C@H]1CSSC(C)(C)[C@@H](C(=O)N[C@H](C(=O)N2CCC[C@H]2C(N)=O)[C@@H](C)CC)NC(=O)[C@H]([C@@H](C)CC)NC(=O)[C@@H]2C[C@@H]3CCCC[C@@H]3N2C(=O)[C@@H]2CCCN2C(=O)[C@H](CC(C)C)NC(=O)[C@H](CO)NC(=O)[C@H](CCCNC(=N)N)NC(=O)[C@H](CO)NC1=O
B7: Example 348: GIC+SRSLPPIC+I-(Hyp)-D-OH (peptide)
peptide: GICSRSLPPICI[Hyp]D-OH
modifications: disulfide 3-11; N-terminus assumed
SMILES: CC[C@H](C)[C@H](NC(=O)CN)C(=O)N[C@H]1CSSC[C@@H](C(=O)N[C@H](C(=O)N2C[C@H](O)C[C@H]2C(=O)N[C@@H](CC(=O)O)C(=O)O)[C@@H](C)CC)NC(=O)[C@H]([C@@H](C)CC)NC(=O)[C@@H]2CCCN2C(=O)[C@@H]2CCCN2C(=O)[C@H](CC(C)C)NC(=O)[C@H](CO)NC(=O)[C@H](CCCNC(=N)N)NC(=O)[C@H](CO)NC1=O
B8: Example 333: (tert-Butylacetic acid)-IC+SRS-((tBu)A)-PPI-((N-Me)C)+I-NH2 (peptide)
peptide: {Butanoyl(3,3-Me2)}-ICSRS[tBuAla]PPI[NMeC]I-NH2
modifications: disulfide 2-10
SMILES: CC[C@H](C)[C@H](NC(=O)[C@@H]1CSSC[C@H](NC(=O)[C@@H](NC(=O)CC(C)(C)C)[C@@H](C)CC)C(=O)N[C@@H](CO)C(=O)N[C@@H](CCCNC(=N)N)C(=O)N[C@@H](CO)C(=O)N[C@@H](CC(C)(C)C)C(=O)N2CCC[C@H]2C(=O)N2CCC[C@H]2C(=O)N[C@@H]([C@@H](C)CC)C(=O)N1C)C(N)=O
B9: Example 340: ((N-Me)G)-((N-Me)I)-C+SRSLPPIC+IPD-NH2 (peptide)
peptide: [Sar][NMeI]CSRSLPPICIPD-NH2
modifications: disulfide 3-11; N-terminus assumed
SMILES: CC[C@H](C)[C@@H]1NC(=O)[C@@H]2CCCN2C(=O)[C@@H]2CCCN2C(=O)[C@H](CC(C)C)NC(=O)[C@H](CO)NC(=O)[C@H](CCCNC(=N)N)NC(=O)[C@H](CO)NC(=O)[C@@H](NC(=O)[C@H]([C@@H](C)CC)N(C)C(=O)CNC)CSSC[C@@H](C(=O)N[C@H](C(=O)N2CCC[C@H]2C(=O)N[C@@H](CC(=O)O)C(N)=O)[C@@H](C)CC)NC1=O
B10: Example 339: ((N-Me)G)-IC+SRSLPPIC+IPE-OH (peptide)
peptide: [Sar]ICSRSLPPICIPE-OH
modifications: disulfide 3-11; N-terminus assumed
SMILES: CC[C@H](C)[C@H](NC(=O)CNC)C(=O)N[C@H]1CSSC[C@@H](C(=O)N[C@H](C(=O)N2CCC[C@H]2C(=O)N[C@@H](CCC(=O)O)C(=O)O)[C@@H](C)CC)NC(=O)[C@H]([C@@H](C)CC)NC(=O)[C@@H]2CCCN2C(=O)[C@@H]2CCCN2C(=O)[C@H](CC(C)C)NC(=O)[C@H](CO)NC(=O)[C@H](CCCNC(=N)N)NC(=O)[C@H](CO)NC1=O

Columns and labels:
[1] = molecular target: T1, recombinant human MASP1 active protease (amino acids 297-699, C-terminal His Tag) (human, UniProt P48740 297-699); assay: cell-based or functional assay
T1 sequence: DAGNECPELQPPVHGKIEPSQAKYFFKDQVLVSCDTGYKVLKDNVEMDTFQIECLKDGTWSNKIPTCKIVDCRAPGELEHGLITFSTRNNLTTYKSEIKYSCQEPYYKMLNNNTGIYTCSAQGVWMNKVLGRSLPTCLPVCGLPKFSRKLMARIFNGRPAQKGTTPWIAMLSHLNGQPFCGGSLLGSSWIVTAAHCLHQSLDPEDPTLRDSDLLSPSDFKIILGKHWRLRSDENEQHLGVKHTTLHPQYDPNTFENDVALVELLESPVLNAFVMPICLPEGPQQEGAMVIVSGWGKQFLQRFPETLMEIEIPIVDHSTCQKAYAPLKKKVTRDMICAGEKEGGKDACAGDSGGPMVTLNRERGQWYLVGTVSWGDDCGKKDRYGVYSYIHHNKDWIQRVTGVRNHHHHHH

[2] = molecular target: recombinant human MASP2 active protease (amino acids 297-686, C-terminal His Tag) (human, UniProt O00187 297-686); assay: cell-based or functional assay
Chain of recombinant human MASP2 active protease (amino acids 297-686, C-terminal His Tag) (O00187 other isoform, or with tags, fused parts or gaps limits assumed): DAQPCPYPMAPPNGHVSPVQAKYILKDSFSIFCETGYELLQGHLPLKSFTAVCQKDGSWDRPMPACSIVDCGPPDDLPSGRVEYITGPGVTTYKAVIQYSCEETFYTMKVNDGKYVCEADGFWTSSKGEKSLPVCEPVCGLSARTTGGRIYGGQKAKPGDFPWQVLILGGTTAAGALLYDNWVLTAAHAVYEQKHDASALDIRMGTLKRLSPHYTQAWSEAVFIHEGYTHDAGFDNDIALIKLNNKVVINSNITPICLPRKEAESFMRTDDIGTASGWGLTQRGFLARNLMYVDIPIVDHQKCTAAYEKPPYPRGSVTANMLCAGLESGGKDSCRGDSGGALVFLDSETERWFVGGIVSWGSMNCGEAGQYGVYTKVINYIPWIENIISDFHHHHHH

Binder	human MASP1 IC50 [1]	human MASP2 IC50 [2]
B1	26 nM	430 nM
B2	27 nM	190 nM
B3	26 nM	17 nM
B4	27 nM	390 nM
B5	25 nM	180 nM
B6	25 nM	690 nM
AICSRS[2‑Amino‑7‑(tert-butoxy)‑7‑oxoheptanoic acid]PPI[Pen]IPD-NH2 (disulfide 3-11) [Example 344: AIC+SRS-(2-Amino-7-(tert-butoxy)-7-oxoheptanoic acid)-PPI-(Pen)+IPD-NH2]	27 nM	51 nM
B7	28 nM	690 nM
[(2S,3S)‑2‑((3R)-3-Amino-2-oxopyrrolidin-1-yl)‑3‑methylpentanoic acid]CSRSLPPICIAD-OH (disulfide 2-10)	26 nM	360 nM
B8	25 nM	8.4 nM
AICSRS[(2S)‑2‑Amino‑4,4,4‑trifluorobutanoic acid]PPI[NMeC]IPD-NH2 (disulfide 3-11) [Example 337: AIC+SRS-((2S)-2-Amino-4,4,4-trifluorobutanoic acid)-PPI-((N-Me)C)+IPD-NH2]	25 nM	2000 nM
B9	26 nM	300 nM
B10	26 nM	640 nM
